{
  "source": "patent US20220290132",
  "target": "SpCas9 nuclease (Streptococcus pyogenes) (UniProt Q99ZW2)",
  "sequence (Q99ZW2 whole entry)": "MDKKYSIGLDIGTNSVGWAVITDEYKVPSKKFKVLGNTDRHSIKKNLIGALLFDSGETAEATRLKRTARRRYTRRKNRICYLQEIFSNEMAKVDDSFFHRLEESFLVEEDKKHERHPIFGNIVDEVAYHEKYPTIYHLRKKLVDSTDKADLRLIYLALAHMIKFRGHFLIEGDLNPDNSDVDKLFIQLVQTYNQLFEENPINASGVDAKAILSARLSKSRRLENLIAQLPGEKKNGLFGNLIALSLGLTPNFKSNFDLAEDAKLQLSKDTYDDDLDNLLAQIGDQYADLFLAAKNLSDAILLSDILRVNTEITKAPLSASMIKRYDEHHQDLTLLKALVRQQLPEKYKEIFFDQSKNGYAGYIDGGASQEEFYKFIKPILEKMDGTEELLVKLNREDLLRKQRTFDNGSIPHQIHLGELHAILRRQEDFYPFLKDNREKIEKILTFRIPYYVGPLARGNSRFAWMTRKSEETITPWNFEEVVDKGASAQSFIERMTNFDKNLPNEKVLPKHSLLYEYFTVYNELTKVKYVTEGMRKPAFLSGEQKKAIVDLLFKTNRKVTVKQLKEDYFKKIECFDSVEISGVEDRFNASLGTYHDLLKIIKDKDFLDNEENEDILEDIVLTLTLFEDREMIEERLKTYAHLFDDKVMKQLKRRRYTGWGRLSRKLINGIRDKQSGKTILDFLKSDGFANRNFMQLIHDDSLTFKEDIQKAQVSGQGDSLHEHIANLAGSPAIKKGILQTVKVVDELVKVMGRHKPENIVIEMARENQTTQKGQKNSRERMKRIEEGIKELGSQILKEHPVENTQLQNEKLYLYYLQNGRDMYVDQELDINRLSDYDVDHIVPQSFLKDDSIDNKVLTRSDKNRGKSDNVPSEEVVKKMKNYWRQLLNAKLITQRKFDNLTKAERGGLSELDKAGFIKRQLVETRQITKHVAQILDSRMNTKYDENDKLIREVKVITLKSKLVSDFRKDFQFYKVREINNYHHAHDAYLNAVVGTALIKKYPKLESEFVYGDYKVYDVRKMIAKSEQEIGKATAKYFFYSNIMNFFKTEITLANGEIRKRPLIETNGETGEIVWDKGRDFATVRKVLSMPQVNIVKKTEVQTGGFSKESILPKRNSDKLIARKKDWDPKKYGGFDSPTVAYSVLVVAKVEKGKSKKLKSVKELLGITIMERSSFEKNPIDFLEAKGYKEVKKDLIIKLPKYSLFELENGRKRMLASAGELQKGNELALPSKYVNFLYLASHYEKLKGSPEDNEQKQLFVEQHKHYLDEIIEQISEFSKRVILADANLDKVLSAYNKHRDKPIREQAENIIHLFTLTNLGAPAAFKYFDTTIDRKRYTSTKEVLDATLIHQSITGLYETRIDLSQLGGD",
  "assay": "EMSA",
  "conditions": "30 nM Cas9, 30 nM RNA, NEBuffer 3.1, 25 C then 37 C; negative control",
  "data": [
    {"substance": "non-CRISPR structured RNA negative control", "values": [
      {"measurement": "binding signal", "result": 55, "unit": "% bound"}
    ]}
  ]
}
